We go through 3 substances from patent publication US20040241164A1.

pKd: −log10 of the molar value.

One assay concerns the target Soluble Aβ 1-40 (UniProt P05067). Briefly: BIAcore 2000 SPR, antibody captured by anti-Ig, soluble Aβ in flow.
A further assay deals with Soluble Aβ 1-42 (UniProt P05067). The assay is described as above.

With Murine anti-Aβ antibody 266, the pKd with Soluble Aβ 1-40 and with Soluble Aβ 1-42 was 11.40 each time.

On to anti-Aβ murine antibody 4G8, for which the pKd with Soluble Aβ 1-40 was 7.64; in the assay with Soluble Aβ 1-42 it was 7.62.

anti-Aβ murine antibody 21F12 had a negative logarithm of the Kd (pKd) in the assay with Soluble Aβ 1-42 of 8.36.
